Km and kcat data for one substance are collected here from PMC6362186, “Isolation and biochemical characterization of a metagenome-derived 3-deoxy-D-arabino-heptulosonate-7-phosphate synthase gene from subtropical marine mangrove wetland sediments” (AMB Express, 2019).

In the series the test system is T1, C=C(OP(=O)(O)O)C(=O)O.
T1 construct: His-tagged from pET-30a(+) HindIII/XhoI, tag removal not mentioned, ~37 kDa on SDS-PAGE; E. coli Rosetta (DE3), Ni resin; tetramer only by homology model
Put plainly: purified protein. Type of series: biochemical, uncultured bacterium. As to conditions: co-substrate D-erythrose 4-phosphate, optimal conditions pH 8.0, 40 °C, CoCl2 0.1 mM in standard assay, PEP range printed as 0.1–0.5 μM.

For Aro1A (uncultured bacterium), the Km turned out to be 19.58 µM and the turnover number (kcat) stood at 17.3 s⁻¹.
